Values quoted from earlier work as cited in publication PMC7369927.
pKd: −log10 of the molar value. Like-named read-outs stand apart in the source and are kept apart here.

Tests used:
AT1 receptor [1] = target: AT1 receptor (UniProt P30556)
AT1 receptor [2] = target: AT1 receptor (UniProt P30556); remark: listed apart in the source

UniProt P30556, sequence (P30556 whole entry): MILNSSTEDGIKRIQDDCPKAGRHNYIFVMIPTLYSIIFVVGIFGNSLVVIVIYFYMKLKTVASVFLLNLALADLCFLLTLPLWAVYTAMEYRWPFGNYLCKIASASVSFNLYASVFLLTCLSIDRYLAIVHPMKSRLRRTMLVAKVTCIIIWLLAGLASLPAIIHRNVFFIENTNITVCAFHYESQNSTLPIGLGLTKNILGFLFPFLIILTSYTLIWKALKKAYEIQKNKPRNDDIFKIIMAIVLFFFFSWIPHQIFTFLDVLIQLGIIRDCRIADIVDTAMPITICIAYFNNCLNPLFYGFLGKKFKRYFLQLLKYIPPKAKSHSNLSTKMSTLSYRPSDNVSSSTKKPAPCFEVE

Row | pKd (AT1 receptor [1]) | pKd (AT1 receptor [2]) | Substance
1 | 8.70 |  | Ang II (from UniProt P01019)
2 |  | 6.70 | Ang-(1-7) (from UniProt P01019)
